{"source": "paper PMC6210743", "about": "“Starch Synthesis in Ostreococcus tauri: The Starch-Binding Domains of Starch Synthase III-B Are Essential for Catalytic Activity” (Frontiers in Plant Science, 2018)", "proteins": {"B1": {"name": "OsttaSSIII-B (Ostreococcus tauri) (protein)", "chain": "ASVETQLDGTDHPRVFTVPATPVAGGALRVFADVERADALRSASGWKLIGGYNAWRVGEFTKDMIKVKGTSWVYADVNVDERAFSMDFVFKGDGEAYEKDEGQDFSLTVDFGPTPEEFEEMLKVIEMENKARDEANAFIDGQMARARESGAGASIEKYGRVICKTASGKPGVAGSTERVMWNKAYNPIGGDTDKLVLHVGFNGWCAGVEAKFDLVRATGEIKDENNDWWVADVPLRADAYLLDFVVSDVEESAWDNNEQANFTLAVETSDEEWAVLRELKFEEIRAMAFKKELAEKERKERRAKADAEAKAKAIEVGLKQQSYIIHTEPKVPQVGKPLKVFYNKNNTNLSWSDEIYMTGGFNRWSHEAAIEPVKMTPPGAGEEFFTVTVPRVPTDAWMVDFVFSSGVGEGAQYDNKSGRDYHLPTRGSTASKPPLHVCHIAVEMAPIAKVGGLADVVTAIGRAIQDNGHLVEIILPKYQFFNNSVLLGGKEYETHFDWAGTTIRVEKCKVEGLQCFFIEPQNNMFQTDSVYGRNDDAHRFNFFCNAALEFLVRTARQPDILHCHDWSSAEVARAYWEHYHHNGLTKPKVAFTIHNMNYGQAKLGEAVHHSQVATTVSPSYAGEVRGSPVIGNNGHKFTGVRNGIDPEIWDPETDIFVPVKYNADNQEEGKAAARAELRQRAGMTGWDDKPIVGVVSRLTAQKGVHLIKHAAHHTLSRGGQFVLLGSAPDPKIQGEFNGLANQLGGEDTGFFFAFDEPLSHLMYAGCDVILVPSMFEPCGLTQMISMRYGAVPVVRATGGLRDTVFDVDNEKERAAWEVGGSTDWKTDGDMTNGFSFEGTDEGSLNYALDRCLDAFYNDREWFRSLQKRVMLQDWSWNRPANDYEELYYKMIGR"}, "B2": {"name": "OsttaSSIII-B (Ostreococcus tauri; W122A/Y124A) (protein)", "chain": "B1 chain with W72A, Y74A"}, "B3": {"name": "OsttaSSIII-B (Ostreococcus tauri; F138A) (protein)", "chain": "B1 chain with F88A"}, "B4": {"name": "OsttaSSIII-B (Ostreococcus tauri; Y147A) (protein)", "chain": "B1 chain with Y97A"}, "B5": {"name": "OsttaSSIII-B (Ostreococcus tauri; W279A) (protein)", "chain": "B1 chain with W229A"}, "B6": {"name": "OsttaSSIII-B (Ostreococcus tauri; W304A) (protein)", "chain": "B1 chain with W254A"}, "B7": {"name": "OsttaSSIII-B CD (Ostreococcus tauri) (protein)", "chain": "LHVCHIAVEMAPIAKVGGLADVVTAIGRAIQDNGHLVEIILPKYQFFNNSVLLGGKEYETHFDWAGTTIRVEKCKVEGLQCFFIEPQNNMFQTDSVYGRNDDAHRFNFFCNAALEFLVRTARQPDILHCHDWSSAEVARAYWEHYHHNGLTKPKVAFTIHNMNYGQAKLGEAVHHSQVATTVSPSYAGEVRGSPVIGNNGHKFTGVRNGIDPEIWDPETDIFVPVKYNADNQEEGKAAARAELRQRAGMTGWDDKPIVGVVSRLTAQKGVHLIKHAAHHTLSRGGQFVLLGSAPDPKIQGEFNGLANQLGGEDTGFFFAFDEPLSHLMYAGCDVILVPSMFEPCGLTQMISMRYGAVPVVRATGGLRDTVFDVDNEKERAAWEVGGSTDWKTDGDMTNGFSFEGTDEGSLNYALDRCLDAFYNDREWFRSLQKRVMLQDWSWNRPANDYEELYYKMIGR"}}, "key": {"[1]": {"substrate": "Nc1ncnc2c1ncn2[C@@H]1O[C@H](COP(=O)(O)OP(=O)(O)O[C@H]2O[C@H](CO)[C@@H](O)[C@H](O)[C@H]2O)[C@@H](O)[C@H]1O", "test": "Pi release by alkaline phosphatase from ADP, Malachite Green assay", "type": "biochemical, Ostreococcus tauri", "details": "2 mg/ml glycogen as acceptor, 50 mM BICINE pH 8.0, 30°C", "text": "Pi release by alkaline phosphatase from ADP, Malachite Green assay on OsttaSSIII-B"}, "[2]": {"substrate": "Nc1ncnc2c1ncn2[C@@H]1O[C@H](COP(=O)(O)OP(=O)(O)O[C@H]2O[C@H](CO)[C@@H](O)[C@H](O)[C@H]2O)[C@@H](O)[C@H]1O", "test": "Pi release by alkaline phosphatase from ADP, Malachite Green assay", "type": "biochemical, Ostreococcus tauri", "details": "2 mg/ml glycogen as acceptor, 50 mM BICINE pH 8.0, 30°C, nH 0.57", "text": "Pi release by alkaline phosphatase from ADP, Malachite Green assay on OsttaSSIII-B CD"}}, "note": "Changes are numbered by the printed parent chain. Numbers in names are those of the source."}
{"protein": "B1", "values": [{"measurement": "K0.5", "setting": "[1]; nH 1.16", "result": "0.09 ± 0.02", "unit": "mM"}, {"measurement": "Vmax", "setting": "[1]; nH 1.16", "result": 1.65, "unit": "µmol/min/mg"}]}
{"protein": "B2", "values": [{"measurement": "K0.5", "setting": "[1]; nH 0.94", "result": "0.11 ± 0.01", "unit": "mM"}, {"measurement": "Vmax", "setting": "[1]; nH 0.94", "result": 0.57, "unit": "µmol/min/mg"}]}
{"protein": "B3", "values": [{"measurement": "K0.5", "setting": "[1]; nH 1.06", "result": "0.07 ± 0.02", "unit": "mM"}, {"measurement": "Vmax", "setting": "[1]; nH 1.06", "result": 0.23, "unit": "µmol/min/mg"}]}
{"protein": "B4", "values": [{"measurement": "K0.5", "setting": "[1]; nH 0.78", "result": "0.07 ± 0.01", "unit": "mM"}, {"measurement": "Vmax", "setting": "[1]; nH 0.78", "result": 1.1, "unit": "µmol/min/mg"}]}
{"protein": "B5", "values": [{"measurement": "K0.5", "setting": "[1]; nH 0.88", "result": "0.38 ± 0.11", "unit": "mM"}, {"measurement": "Vmax", "setting": "[1]; nH 0.88", "result": 0.42, "unit": "µmol/min/mg"}]}
{"protein": "B6", "values": [{"measurement": "K0.5", "setting": "[1]; nH 0.80", "result": "0.15 ± 0.03", "unit": "mM"}, {"measurement": "Vmax", "setting": "[1]; nH 0.80", "result": 0.31, "unit": "µmol/min/mg"}]}
{"protein": "B7", "values": [{"measurement": "K0.5", "setting": "[2]", "result": "0.12 ± 0.04", "unit": "mM"}, {"measurement": "Vmax", "setting": "[2]", "result": 0.76, "unit": "µmol/min/mg"}]}
